Results from the DeepSol protein solubility set.

assay: soluble on expression in E. coli; label from the status in PepcDB or PDB records

Sequence | soluble on expression in E. coli
MGSDKIHHHHHHMCRILGYLGTPVLLEDLLYAPDSSLLNQTIGAQMLQMLNLAGFGMAAWDPASHDPHLPFRYRTTQVALFDRNLKALAGKLRPGALLAHIRGVPYNSTVQINEQNCHPFRFEGVPLAMAHNGDLAGFREMRFDLAPHVRPEFARQIQGSTDSEWIYALAVSALDDPAGVNEPDAILAAIRRALSILRDARARHGITRSSSTNLMFCDGVNLVAVRFTFDFGRFDAGKLQGTTEYLSMWYTFGRDYGLHDGEWKLTGGAASADSVMVASEPLTRDFATWIEVPEYSALIVRHEGARRRAEIHALEV | not soluble
MGSDKIHHHHHHMEFQLDKDWRLQPIKGATGQTYMGIKETEKVFIKRNTSPLLAALSKEGLAPKMIWTKRTANGDVLTAQEWLEGRLLHADEIGKRNDVIDVLYQLHHSNLLKDMLKKIGGEVCTPLTMLKEYKRQLPKELKRNSYLKEVITYLYNHLPEYPETSYVAVHGDVNHRNWLVSNNYLYLVDWDSVMVADPAVDLGMILSHYVPRSGWNQWLLSYGLIPNESTVQRIYWYGLFSFLQEIVRHHQEGERRAMTAEILQLKRMFSI | not soluble
MNFENLLIELGTEELPPKALRKLAESFLANFTEELTKADLAFKSAVWYAAPRRLALNITELAIAQADKIVEKRGPAVSSAFDAGGKPTKAAEGWARGNGITVDQAERLVTDKGEWLVYNAKVEGVETKSLVAAMAQRALDKLPIPKPMRWGSSKTQFIRPVHTATMLLGSELIEGELLGIKSARNIRGHRFMGTGFELDHADNYLTLLKEKGKVIADYESRKALIKADAEKAAAKIGGTADIEDALLEEVTSLVEWPVVLTASFEEKFLSVPSEALVYTMKGDQKYFPVFDDAGKLLPNFIFVANIESKDPAQIISGNEKVVRPRLADAEFFFNTDKKHTLESRLPSLETVLFQQQLGTLKDKVTRISALAAFIAEQTGANAVDAARAGLLSKTDLMTNMVMEFTDTQGTMGMHYARLDGETEAVALAMEEQYKPKFSGDTVPTAAVSCAVALADKLDTLVGIFGIGQAPKGAADPFALRRAAIGVLRIIVENKLPLDLVTLIAKAQELHGANLSNANASEEVLEFLMARFRAWYQDKGINVDVILAVLARRPTR | not soluble
MVYNENTPHFYNKSGKETFMSNILFSVFPNENFIDMSLYQFGWEQCQPSHSYGPAARNHYLFHYVISGTGTLMADDTSGITQTYSVKSGQGFMIFPQQITTYIADQKLPWEYVWIEFDGLRVKEILELAGLTKSAPIYHAHSKEMREVLKEEMLYIARNPEQPPFHLIGHLYLFMDALTRSCTREQTNSAGRLRDFYIHEAIAFIEQNFQNDISVEDIAEVCGLNRSYFGKIFKETLGRSPQEFLMNYRMVKATELLKLTQLSISEISNAVGYANPLHFSRAFKNVYGESPRIWRQNHRT | not soluble
MSLATMQDVATLAGVAPMTVSNCYRVPDKVHPQTLARVLEAAAKLGYTRNRIAGNLASGRSQVVGVLVPSLENSNFIGMIQGLEDRLHQLDHQLMLAVTPTADRELDSIRTFIERRIDGVVLTDVQHSRDTVDLLRNARLPTVETWSLKGPFIDMGVGFSLYDAAFDMTNLMIEAGYRRIGFAGFTPASTERFLERQRGFEDALRRANLRHDVHAYTEQSEGFAGGRITLNALLREEPELDGVFCGTDILAAGMIFECMRRGWRVPGRIGIAGYGNYQIASEITPKLTTVATPGYEMGVAAAEMLVGRLVGAAPAPVIRDVGYRLISGASEGHHHHHH | not soluble
MSLKLLIEEFIPVEEISEEAKKEKLGNAKPPIFSLHYWWARKPLITARAAVLGALISKENLPMIVGNGDLKTNLLRILRIPKDINEGPRAHTQDPPAEYLKEAIIKTWGEIPTVLDPFAGGGSIPFEALRLGCNAVAVDYNPVAYLILKETLEYPKKYGMKLILEGHHHHHH | not soluble
MFGKYKVSVIIPAYNEEKRIGNVLARIPDFVDEVIVIDDGSSDATYEVAKRYTDKAIRLNKNMGKGAALREGLRHASGDIIVFMDADGQHNPKEIPKLLEPIIKGKADFVIGKRIIKTGKRPLPRKLSNFITTTLIRLKTKQRIEDSQSGFRAIRREFVPEITSDRYEVETEVLIKAVKKGARITEVPVSTRYDLKTGKFRVEDIIRFLIALIKSLEHHHHHH | not soluble
MKLPKEGDFITIQSYKHDGRLHRTWRDTMVLKTTENAVIGVNDHTLVTEADGRRWVTREPAIVYFHKKYWFNIIAMIRDNGISYYCNLASPYVLDQEALKYIDYDLDVKVFADGEKKLLDVDEYEIHKKEMHYSPDIDYILKEHVKILVDWINNGKGPFSQSYVNIWYKRYLELRNR | not soluble
MGIGSKILENNIQKSISLGFYHSHSELRKSFYEFFKSKNHEILRSSSVIPDENDGTLLFTNAGMNQFKPLILSSTESRRVANIQKCIRAGGKHNDLDDVGKDLHHQTFFEMMGNWSFNDAFSKEEACRYAWEYLVEILGINADRLYVSYFGGIEKLGLPEDRECREIWKRIGVSSNRILPFVAENFWEMGAAGPCGPCTEIHYDRIGGRDASRLVNIDDSVVEIWNIVFMSSVRDSCGQIRHLGKNHIDTGMGFERLLSVVQNKTSNFDTDVFTPILEKTSELAKKQYTGSLDSRQDATFRLVADHIRAATVAISDGAVPDGTGCGFIVRKMMRRAFLQGISKLGIERYAMSELVPVVASTMKEVYPEIHDTSTHIRKIFNDEEAQFWKTVDKAKKMFDSVAAESKSPIISGRKAFNLFETHGLPLAVTVELARNIGREVDETEFERCRLEAQKVSQKASQFKLPISADDFPSHSDKEKYSYVFRNGKYEFPQVKTRILQVYKDQQKAESLEANDRGFLVLEECQFYGEQGGQTSDTGHLLIDGREVFEVENAKKIAGGAVTVLFGRALLPIRRDLRVEQKLDETRREGVMRAHSATHLLNWALQKLGVGSGQKGSSVDCDRFRFDYSTGDEDLSKEQRTELLIKCEMKMREFIQNGGFTEIIETSLEEAKKIENLQSDVKEDRIGGASVRVVALGSGADVPVECCSGTHIHDVRVIDDVAIMSDKSMGQRLRRIIVLTGKEAAACRNYTKSIYEDLRSTDPKERSKTGKNIDWKRVPIADQARISILLKQKK | not soluble
GKVAKPVLLHQSSTEVSSTNQVEVPDTTQSSPVSISSGLNSDPDMVDSPVVTGVSGMAVASVMGSLSQSATVFMSEVTNEAVYTMSPTAGPNHHLLSPDASQGLVLAVSSDGHKFAFPTTGSSESLSMLPTNVSEELVLSTTLDGGRKIPETTMNFDPDCFLNNPKQGQTYGGGGLKAEMVSSNIRHSPPGERSFSFTTVLTKEIKTEDTSFEQQMAKEAYSSSAAAVAASSLTLTAGSSLLPSGGGLSPSTTLEQMDFSAIDSNKDYTSSFSQTGHSPHIHQTPSPSFFLQDASKPLPVEQNTHSSLSDSGGTFVMPTVKTEASSQTSSCSGHVETRIESTSSLHLMQFQANFQAMTAEGEVTMETSQAAEGSEVLLKSGELQACSSEHYLQPETNGVIRSAGGVPILPGNVVQGLYPVAQPSLGNASNMELSLDHFDISFSNQFSDLINDFISVEGGSSTIYGHQLVSGDSTALSQSEDGARAPFTQAEMCLPCCSPQQGSLQLSSSEGGASTMAYMHVAEVVSAASAQGTLGMLQQSGRVFMVTDYSPEWSYPEGGVKVLITGPWQEASNNYSCLFDQISVPASLIQPGVLRCYCPAHDTGLVTLQVAFNNQIISNSVVFEYKARALPTLPSSQHDWLSLDDNQFRMSILERLEQMERRMAEMTGSQQHKQASGGGSSGGGSGSGNGGSQAQCASGTGALGSCFESRVVVVCEKMMSRACWAKSKHLIHSKTFRGMTLLHLAAAQGYATLIQTLIKWRTKHADSIDLELEVDPLNVDHFSCTPLMWACALGHLEAAVVLYKWDRRAISIPDSLGRLPLGIARSRGHVKLAECLEHLQRDEQAQLGQNPRIHCPASEEPSTESWMAQWHSEAISSPEIPKGVTVIASTNPELRRPRSEPSNYYSSESHKDYPAPKKHKLNPEYFQTRQEKLLPTALSLEEPNIRKQSPSSKQSVPETLSPSEGVRDFSRELSPPTPETAAFQASGSQPVGKWNSKDLYIGVSTVQVTGNPKGTSVGKEAAPSQVRPREPMSVLMMANREVVNTELGSYRDSAENEECGQPMDDIQVNMMTLAEHIIEATPDRIKQENFVPMESSGLERTDPATISSTMSWLASYLADADCLPSAAQIRSAYNEPLTPSSNTSLSPVGSPVSEIAFEKPNLPSAADWSEFLSASTSEKVENEFAQLTLSDHEQRELYEAARLVQTAFRKYKGRPLREQQEVAAAVIQRCYRKYKQLTWIALKYALYKKMTQAAILIQSKFRSYYEQKKFQQSRRAAVLIQKYYRSYKKCGKRRQARRTAVIVQQKLRSSLLTKKQDQAARKIMRFLRRCRHSPLVDHRLYKRSERIEKGQGT | soluble
MTMKEVEITAESLAKLTPAKQPNDTTTRVNSLSYGLKGDHMIMSTDDDSMFLYDMNTGLRSRSVNSKKYGCSHVKFASDSMCALHGSTKVDNTIRYLSLTDNKYIRYFQGHDKLVTGINVSPMDDMFLSVAEDKTIRLWDLKTHNCIGLMNLSATPIATFDPEGLLFAAGLDNNIIKLYDLRSFDKGPFSSFGPLENEDNVEWTAMRFSPCGKYIMICTNSSQLLLVDAFTGLIKFTLEEHQNAQKIPLMASFTPESSHIMVGSSDGYIYFYDVETGEIALKTLAPNNQTCHIAEFSPQHFVAATADTKLTLWCASDELKAQAQQS | not soluble
MSLISIVVLYYSRHGSTQALARQIARGVESVEGCQALLRTVAELDGTASNSDPYLSLDELKQCDGLALGSPVWFGNMAAPLKHFWDQTTPLWLSGALIDKPACVFTSSSTLHGGQETTQQSMMLPLLHHGMLILGIPYSEPALHTTQSGGTPYGASHVHQQKTLSSEEAELARQLGKRLAHVAKQLKGEGGSHHHHHH | soluble
MHENMKDSLKRPLQDLRISVIDRCNFRCTYCMPAEVFGPDYAFLQEECLLTFDEIERLARLFISMGVNKIRLTGGEPLLRKDLPKLIARLAKLEGLKDIGLTTNGIHLAKQAKALKEAGLKRVNISLDAIEDRVFQKINGRHVSTKPVLKGIEAAKEAGLEVKVNMVVKKGMNDSQILPMAQYFKEQEIQLRFIEFMDVGSTNGWNFEQVVTKEQLIEKINRVYPIEPVKPRYFGEVAKLYRYVGNDAEVGFITSVSESFCSSCTRARISADGKFYTCLFGEKGTDLRSLLRENISDASLLKILQHTWEFRTDRYSDERTAESTNKRQKVEMSYIGG | not soluble
MPVKLATALSNNLFPALDSQLRAGRHIGIEELENHVFLMDFQEVLEEFYSRYNVELIRAPEGFFYLRPRSTTLIPRSVLSELDMMVGKILCYLYLSPERLAHEGIFSQQELYEELLSLADESKLLKLVNQRSTGSDLDRQKLQEKVRTSLNRLRRLGMIYFMGNDSSKFRITESVFRFGADVRSGDDAREAQLRMIRDGEAMPVEGSLSLKDDSDDNDRTDDTAPETGEDELEHHHHHH | not soluble
MNTNVTTNKSVQAAKNTGRVKPQKLADIILAQLEGMIIEGSLQPGEKLLPERELALQFEVSRPSLREAIQKLEAKGLVTRKQGGGTFVCNNLLSGFSDPLFELMSNNNESQFDLLEFRHGIEGMASYYAAMRGTPADFEQIQAKHNEIGNSQLEDDFRGEAEAVVEFHLAICAASHNAVILQLARSMSSLLADNIAQNLTVLAKRPDIFSKITDYRKRLLDAILSGQPQKAWGASHRHLAFIEEVLLKSTQENSRMERSMRRM | not soluble
MEDYIKNWNKIISNCSFDNTYKMAWAKAIVETAISKDIDSALIISFEEIAELFLKYYWNQTIYFNLTQGSSLKKIPEALKYTKNLIDLYYAKKGDYFPQRYEKIIFEDFGIESEKNKTIKKIVKTLGQDVSWRFMNLSGETYPLYELVENQVVLSLENAKLLKKYSDFLFPMINYRWTQMLESFNHSPRISSKVRAIDEDSIKKRNNLNKFREFLDLEFSDNKRYCFYCGKEIVDDDLTIDHVIPWSFMYSDDIWNLVYCHRSENSSKSNRIPEETDVKALECRNKLLLEKLTENKISSKRVDELQLAIEKDYVKKFWISSRGLEHHHHHH | not soluble
MAGDPMGSGESKANTAETPEVLDVKLTGPEKVNPGESAAYEAAVSYGDEAVTDADEVEFEVWKEGEKDASQMFKVKQEKGVYRLETTFKEDGVYTVQSHVTAKKQHSMPTLKVQVGDADAASNQSEEEHSHHHLEHHHHHH | soluble
